Assay results reported in the supplement of paper PMC11246515.
± gives the standard deviation of the averaged measurements.

Experiment: total protein half-life in vivo (active degradation + dilution); higher = more stable protein
[1] = E. coli NCM3722 delta-clpP delta-lon delta-hslV, growth: N-lim chemostat, doubling time 6 h
[2] = E. coli NCM3722 delta-clpP, growth: N-lim chemostat, doubling time 6 h
[3] = E. coli NCM3722 delta-hslV, growth: N-lim chemostat, doubling time 6 h
[4] = E. coli NCM3722 delta-lon, growth: N-lim chemostat, doubling time 6 h
[5] = E. coli NCM3722 delta-smpB, growth: N-lim chemostat, doubling time 6 h
[6] = wild type E. coli NCM3722, growth: C-lim chemostat, doubling time 3 h
[7] = wild type E. coli NCM3722, growth: C-lim chemostat, doubling time 6 h
[8] = wild type E. coli NCM3722, growth: C-lim chemostat, doubling time 12 h
[9] = wild type E. coli NCM3722, growth: N-lim chemostat, doubling time 6 h
[10] = wild type E. coli NCM3722, growth: N-lim chemostat, doubling time 12 h
[11] = wild type E. coli NCM3722, growth: P-lim chemostat, doubling time 6 h
[12] = wild type E. coli NCM3722, growth: P-lim chemostat, doubling time 12 h

Row | Sequence | total protein half-life in vivo [1] [h] | total protein half-life in vivo [2] [h] | total protein half-life in vivo [3] [h] | total protein half-life in vivo [4] [h] | total protein half-life in vivo [5] [h] | total protein half-life in vivo [6] [h] | total protein half-life in vivo [7] [h] | total protein half-life in vivo [8] [h] | total protein half-life in vivo [9] [h] | total protein half-life in vivo [10] [h] | total protein half-life in vivo [11] [h] | total protein half-life in vivo [12] [h]
1 | MTPLLELKDIRRSYPAGDEQVEVLKGISLDIYAGEMVAIVGASGSGKSTLMNILGCLDKATSGTYRVAGQDVATLDADALAQLRREHFGFIFQRYHLLSHLTAEQNVEVPAVYAGLERKQRLLRAQELLQRLGLEDRTEYYPAQLSGGQQQRVSIARALMNGGQVILADEPTGALDSHSGEEVMAILHQLRDRGHTVIIVTHDPQVAAQAERVIEIRDGEIVRNPPAIEKVNVTGGTEPVVNTVSGWRQFVSGFNEALTMAWRALAANKMRTLLTMLGIIIGIASVVSIVVVGDAAKQMVLADIRSIGTNTIDVYPGKDFGDDDPQYQQALKYDDLIAIQKQPWVASATPAVSQNLRLRYNNVDVAASANGVSGDYFNVYGMTFSEGNTFNQEQLNGRAQVVVLDSNTRRQLFPHKADVVGEVILVGNMPARVIGVAEEKQSMFGSSKVLRVWLPYSTMSGRVMGQSWLNSITVRVKEGFDSAEAEQQLTRLLSLRHGKKDFFTWNMDGVLKTVEKTTRTLQLFLTLVAVISLVVGGIGVMNIMLVSVTERTREIGIRMAVGARASDVLQQFLIEAVLVCLVGGALGITLSLLIAFTLQLFLPGWEIGFSPLALLLAFLCSTVTGILFGWLPARNAARLDPVDALARE | 6.72 ± 0.55 | 6.57 ± 0.25 | 6.77 ± 0.99 | 6.57 ± 1.3 | 5.95 ± 0.35 | 3.15 ± 0.084 | 5.92 ± 0.28 | 12.4 ± 0.29 | 6.2 ± 0.35 | 12.6 ± 0.13 | 6.45 ± 0.26 | 11.9 ± 0.64
2 | MTPLRVFRKTTPLVNTIRLSLLPLAGLSFSAFAAQVNIAPGSLDKALNQYAAHSGFTLSVDASLTRGKQSNGLHGDYDVESGLQQLLDGSGLQVKPLGNNSWTLEPAPAPKEDALTVVGDWLGDARENDVFEHAGARDVIRREDFAKTGATTMREVLNRIPGVSAPENNGTGSHDLAMNFGIRGLNPRLASRSTVLMDGIPVPFAPYGQPQLSLAPVSLGNMDAIDVVRGGGAVRYGPQSVGGVVNFVTRAIPQDFGIEAGVEGQLSPTSSQNNPKETHNLMVGGTADNGFGTALLYSGTRGSDWREHSATRIDDLMLKSKYAPDEVHTFNSLLQYYDGEADMPGGLSRADYDADRWQSTRPYDRFWGRRKLASLGYQFQPDSQHKFNIQGFYTQTLRSGYLEQGKRITLSPRNYWVRGIEPRYSQIFMIGPSAHEVGVGYRYLNESTHEMRYYTATSSGQLPSGSSPYDRDTRSGTEAHAWYLDDKIDIGNWTITPGMRFEHIESYQNNAITGTHEEVSYNAPLPALNVLYHLTDSWNLYANTEGSFGTVQYSQIGKAVQSGNVEPEKARTWELGTRYDDGALTAEMGLFLINFNNQYDSNQTNDTVTARGKTRHTGLETQARYDLGTLTPTLDNVSIYASYAYVNAEIREKGDTYGNLVPFSPKHKGTLGVDYKPGNWTFNLNSDFQSSQFADNANTVKESADGSTGRIPGFMLWGARVAYDFGPQMADLNLAFGVKNIFDQDYFIRSYDDNNKGIYAGQPRTLYMQGSLKF | – | 6.44 ± 0.23 | – | 6.48 | > 8 | 3.66 | – | – | 5.3 ± 0.92 | > 16 | – | –
3 | MTPVKVWQERVEIPTYETGPQDIHPMFLENRVYQGSSGAVYPYGVTDTLSEQKTLKSWQAVWLENDYIKVMILPELGGRVHRAWDKVKQRDFVYHNEVIKPALVGLLGPWISGGIEFNWPQHHRPTTFMPVDFTLEAHEDGAQTVWVGETEPMHGLQVMTGFTLRPDRAALEIASRVYNGNATPRHFLWWANPAVKGGEGHQSVFPPDVTAVFDHGKRAVSAFPIATGTYYKVDYSAGVDISRYKNVPVPTSYMAEKSQYDFVGAWCHDEDGGLLHVANHHIAPGKKQWSWGHSEFGQAWDKSLTDNNGPYIELMTGIFADNQPDFTWLDAYEEKRFEQYFLPYHSLGMVQNASRDAVIKLQRSKRGIEWGLYAISPLNGYRLAIREIGKCNALLDDAVALMPATAIQGVLHGINPERLTIELSDADGNIVLSYQEHQPQALPLPDVAKAPLAAQDITSTDEAWFIGQHLEQYHHASRSPFDYYLRGVALDPLDYRCNLALAMLEYNRADFPQAVAYATQALKRAHALNKNPQCGQASLIRASAYERQGQYQQAEEDFWRAVWSGNSKAGGYYGLARLAARNGNFDAGLDFCQQSLRACPTNQEVLCLHNLLLVLSGRQDNARVQREKLLRDYPLNATLWWLNWFDGRSESALAQWRGLCQGRDVNALMTAGQLINWGMPTLAAEMLNALDCQRTLPLYLQASLLPKAERGELVAKAIDVFPQFVRFPNTLEEVAALESIEECWFARHLLACFYYNKRSYNKAIAFWQRCVEMSPEFADGWRGLAIHAWNKQHDYELAARYLDNAYQLAPQDARLLFERDLLDKLSGATPEKRLARLENNLEIALKRDDMTAELLNLWHLTGQADKAADILATRKFHPWEGGEGKVTSQFILNQLLRAWQHLDARQPQQACELLHAALHYPENLSEGRLPGQTDNDIWFWQAICANAQGDETEATRCLRLAATGDRTINIHSYYNDQPVDYLFWQGMALRLLGEQQTAQQLFSEMKQWAQEMAKTSIEADFFAVSQPDLLSLYGDLQQQHKEKCLMVAMLASAGLGEVAQYESARAELTAINPAWPKAALFTTVMPFIFNRVH | – | – | – | – | – | 3.06 ± 0.34 | 4.96 ± 0.015 | 8.56 ± 1.8 | – | – | – | 7.32
4 | MTQFNPVDHPHRRYNPLTGQWILVSPHRAKRPWQGAQETPAKQVLPAHDPDCFLCAGNVRVTGDKNPDYTGTYVFTNDFAALMSDTPDAPESHDPLMRCQSARGTSRVICFSPDHSKTLPELSVAALTEIVKTWQEQTAELGKTYPWVQVFENKGAAMGCSNPHPHGQIWANSFLPNEAEREDRLQKEYFAEQKSPMLVDYVQRELADGSRTVVETEHWLAVVPYWAAWPFETLLLPKAHVLRITDLTDAQRSDLALALKKLTSRYDNLFQCSFPYSMGWHGAPFNGEENQHWQLHAHFYPPLLRSATVRKFMVGYEMLAETQRDLTAEQAAERLRAVSDIHFRESGV | 3.59 ± 0.68 | 3.9 ± 0.27 | 4.65 ± 1 | 5.17 ± 1 | 3.41 ± 0.41 | 3.38 ± 0.37 | 5.51 ± 0.28 | 12.5 ± 2.4 | 4.16 ± 0.59 | 6.05 ± 0.21 | 5.52 ± 0.24 | 11.7 ± 0.13
5 | MTQNIRPLPQFKYHPKPLETGAFEQDKTVECDCCEQQTSVYYSGPFYCVDEVEHLCPWCIADGSAAEKFAGSFQDDASIEGVEFEYDEEDEFAGIKNTYPDEMLKELVERTPGYHGWQQEFWLAHCGDFCVFIGYVGWNDIKDRLDEFANLEEDCENFGIRNSDLAKCLQKGGHCQGYLFRCLHCGKLRLWGDFS | 5.27 | – | – | – | – | – | – | – | – | – | – | –
6 | MTQPLFLIGPRGCGKTTVGMALADSLNRRFVDTDQWLQSQLNMTVAEIVEREEWAGFRARETAALEAVTAPSTVIATGGGIILTEFNRHFMQNNGIVVYLCAPVSVLVNRLQAAPEEDLRPTLTGKPLSEEVQEVLEERDALYREVAHIIIDATNEPSQVISEIRSALAQTINC [P0A6E1] | 4.64 ± 0.55 | 5.49 ± 2.4 | 2.62 ± 0.031 | 2.9 ± 0.18 | 2.42 ± 0.11 | 2.43 ± 0.067 | 5.25 ± 0.8 | 7.3 ± 0.53 | 2.59 ± 0.29 | 3.99 ± 0.094 | 3.9 ± 0.047 | 8.17 ± 0.78
